{
  "source": "paper PMC9191634",
  "key": {"[1]": {"target": "human voltage-gated proton channel hHv1 (human) (UniProt Q96D96)"}, "[2]": {"target": "hHv1-R205N (human) (UniProt Q96D96)", "assay": "whole-cell patch clamp (block of H+ current)"}, "[3]": {"target": "hHv1-V187C (human) (UniProt Q96D96)", "assay": "whole-cell patch clamp (block of H+ current)"}, "[4]": {"target": "hHv1-L200C (human) (UniProt Q96D96)", "assay": "whole-cell patch clamp (block of H+ current)"}, "[5]": {"target": "hHv1-D185C (human) (UniProt Q96D96)", "assay": "whole-cell patch clamp (block of H+ current)"}, "[6]": {"target": "hHv1-L203C (human) (UniProt Q96D96)", "assay": "whole-cell patch clamp (block of H+ current)"}, "[7]": {"target": "hHv1-G199C (human) (UniProt Q96D96)", "assay": "whole-cell patch clamp (block of H+ current)"}, "[8]": {"target": "human voltage-gated proton channel hHv1 (human) (UniProt Q96D96)", "assay": "whole-cell patch clamp (block of H+ current)"}, "[9]": {"target": "hHv1-R211S (human) (UniProt Q96D96)", "assay": "whole-cell patch clamp (block of H+ current)"}, "[10]": {"target": "hHv1-E192C (human) (UniProt Q96D96)", "assay": "whole-cell patch clamp (block of H+ current)"}, "[11]": {"target": "hHv1-H193C (human) (UniProt Q96D96)", "assay": "whole-cell patch clamp (block of H+ current)"}, "[12]": {"target": "hHv1-E196C (human) (UniProt Q96D96)", "assay": "whole-cell patch clamp (block of H+ current)"}, "[13]": {"target": "human voltage-gated proton channel hHv1 (human) (UniProt Q96D96)", "assay": "whole-cell patch clamp (block of H+ current); as a1 but test pulses to +20 mV"}, "[14]": {"target": "human voltage-gated proton channel hHv1, Q96D96-1", "assay": "whole-cell patch clamp", "conditions": "+40 mV; HEK293T cells; parent: 0.031 ± 0.003 µM"}, "[15]": {"target": "C6 peptide", "assay": "whole-cell patch clamp", "conditions": "+40 mV, HEK293T cells; for ratio to parent: parent: est. 1.0, read off a plot"}},
  "note": "“And” between values parts separate entries of the source, which are not always exact repeats. Equal values may be shown once.",
  "data": [
    {"substance": "C6 peptide (designed binder)", "values": [
      {"measurement": "fraction of H+ current blocked by 250 nM C6, whole-cell patch clamp in HEK293T cells, -20 mV to +40 mV", "setting": "[1]", "value": 90, "unit": "%"},
      {"measurement": "Ki", "setting": "[2]", "value": 161, "unit": "nM"},
      {"measurement": "koff", "setting": "[2]", "value": 0.19, "unit": "s⁻¹"},
      {"measurement": "kon", "setting": "[2]", "value": 300000, "unit": "M⁻¹ s⁻¹"},
      {"measurement": "Ki mutation/Ki WT", "setting": "[3]", "value": "> 43", "unit": "fold"},
      {"measurement": "Ki mutation/Ki WT", "setting": "[4]", "value": "> 43", "unit": "fold"},
      {"measurement": "fold enhancement of C6 inhibition against WT hHv1", "setting": "[5]", "value": "> 4", "unit": "fold"},
      {"measurement": "fold enhancement of C6 inhibition against WT hHv1", "setting": "[6]", "value": "> 4", "unit": "fold"},
      {"measurement": "Ki", "setting": "[7]", "value": 1.9, "unit": "nM"},
      {"measurement": "kon", "setting": "[8]", "value": "300000 M⁻¹ s⁻¹ and 500000 M⁻¹ s⁻¹"},
      {"measurement": "Ki", "setting": "[9]", "value": 0.6, "unit": "nM"},
      {"measurement": "koff", "setting": "[9]", "value": 0.0008, "unit": "s⁻¹"},
      {"measurement": "kon", "setting": "[9]", "value": 500000, "unit": "M⁻¹ s⁻¹"},
      {"measurement": "Ki mutation/Ki WT", "setting": "[10]", "value": "> 43", "unit": "fold"},
      {"measurement": "Ki mutation/Ki WT", "setting": "[11]", "value": "> 43", "unit": "fold"},
      {"measurement": "Ki mutation/Ki WT", "setting": "[12]", "value": "> 43", "unit": "fold"},
      {"measurement": "Ki", "setting": "[13]", "value": 4.9, "unit": "nM"},
      {"measurement": "koff", "setting": "[13]", "value": 0.0043, "unit": "s⁻¹"},
      {"measurement": "kon", "setting": "[13]", "value": 400000, "unit": "M⁻¹ s⁻¹"}
    ]},
    {"substance": "C6 peptide R36A", "values": [
      {"measurement": "Ki", "setting": "[14]", "value": 15000, "unit": "nM"}
    ]},
    {"substance": "human voltage-gated proton channel hHv1 (from UniProt Q96D96-1) A197C", "values": [
      {"measurement": "ratio to parent", "setting": "[15]", "value": 7.6}
    ]},
    {"substance": "human voltage-gated proton channel hHv1 (from UniProt Q96D96-1) E192A", "values": [
      {"measurement": "Ki", "setting": "[15]; parent: 0.031 ± 0.003 µM", "value": 18000, "unit": "nM"}
    ]},
    {"substance": "human voltage-gated proton channel hHv1 (from UniProt Q96D96-1) F190C", "values": [
      {"measurement": "ratio to parent", "setting": "[15]", "value": 0.62}
    ]},
    {"substance": "human voltage-gated proton channel hHv1 (from UniProt Q96D96-1) F195C", "values": [
      {"measurement": "ratio to parent", "setting": "[15]", "value": 3.6}
    ]},
    {"substance": "human voltage-gated proton channel hHv1 (from UniProt Q96D96-1) I183C", "values": [
      {"measurement": "ratio to parent", "setting": "[15]", "value": 1.1}
    ]},
    {"substance": "human voltage-gated proton channel hHv1 (from UniProt Q96D96-1) I186C", "values": [
      {"measurement": "ratio to parent", "setting": "[15]", "value": 1.4}
    ]},
    {"substance": "human voltage-gated proton channel hHv1 (from UniProt Q96D96-1) I202C", "values": [
      {"measurement": "ratio to parent", "setting": "[15]", "value": 30}
    ]},
    {"substance": "human voltage-gated proton channel hHv1 (from UniProt Q96D96-1) L184C", "values": [
      {"measurement": "ratio to parent", "setting": "[15]", "value": 22}
    ]},
    {"substance": "human voltage-gated proton channel hHv1 (from UniProt Q96D96-1) L188C", "values": [
      {"measurement": "ratio to parent", "setting": "[15]", "value": 11}
    ]},
    {"substance": "human voltage-gated proton channel hHv1 (from UniProt Q96D96-1) L189A", "values": [
      {"measurement": "ratio to parent", "setting": "[15]", "value": 0.87}
    ]},
    {"substance": "human voltage-gated proton channel hHv1 (from UniProt Q96D96-1) L198C", "values": [
      {"measurement": "ratio to parent", "setting": "[15]", "value": 1.4}
    ]},
    {"substance": "human voltage-gated proton channel hHv1 (from UniProt Q96D96-1) L201C", "values": [
      {"measurement": "ratio to parent", "setting": "[15]", "value": 3.6}
    ]},
    {"substance": "human voltage-gated proton channel hHv1 (from UniProt Q96D96-1) L203A", "values": [
      {"measurement": "ratio to parent", "setting": "[15]", "value": 0.28}
    ]},
    {"substance": "human voltage-gated proton channel hHv1 (from UniProt Q96D96-1) L204C", "values": [
      {"measurement": "ratio to parent", "setting": "[15]", "value": 2.3}
    ]},
    {"substance": "human voltage-gated proton channel hHv1 (from UniProt Q96D96-1) Q191C", "values": [
      {"measurement": "ratio to parent", "setting": "[15]", "value": 8.7}
    ]},
    {"substance": "human voltage-gated proton channel hHv1 (from UniProt Q96D96-1) Q194C", "values": [
      {"measurement": "ratio to parent", "setting": "[15]", "value": 6}
    ]},
    {"substance": "human voltage-gated proton channel hHv1 (from UniProt Q96D96-1) V187A", "values": [
      {"measurement": "ratio to parent", "setting": "[15]", "value": 130}
    ]}
  ]
}
